In PMC6173745, “Aberrant expression of CITED2 promotes prostate cancer metastasis by activating the nucleolin-AKT pathway” (Nature Communications, 2018):

Legend:
[1] = target: T1, Human recombinant protein NCL (human, UniProt P19338 1-710); assay: co-IP; in vitro binding assay: recombinant proteins CITED2, PRMT5, NCL and P300 put together in a test tube, immunoprecipitated with the indicated antibodies, immunoblotted; conditions: both partners purified
T1 construct: Nucleolin, human, recombinant protein bought from Origene; No catalogue number, host, tag or limits are printed; also called nucleolin; source: bought: Origene
T1 sequence (P19338 whole entry): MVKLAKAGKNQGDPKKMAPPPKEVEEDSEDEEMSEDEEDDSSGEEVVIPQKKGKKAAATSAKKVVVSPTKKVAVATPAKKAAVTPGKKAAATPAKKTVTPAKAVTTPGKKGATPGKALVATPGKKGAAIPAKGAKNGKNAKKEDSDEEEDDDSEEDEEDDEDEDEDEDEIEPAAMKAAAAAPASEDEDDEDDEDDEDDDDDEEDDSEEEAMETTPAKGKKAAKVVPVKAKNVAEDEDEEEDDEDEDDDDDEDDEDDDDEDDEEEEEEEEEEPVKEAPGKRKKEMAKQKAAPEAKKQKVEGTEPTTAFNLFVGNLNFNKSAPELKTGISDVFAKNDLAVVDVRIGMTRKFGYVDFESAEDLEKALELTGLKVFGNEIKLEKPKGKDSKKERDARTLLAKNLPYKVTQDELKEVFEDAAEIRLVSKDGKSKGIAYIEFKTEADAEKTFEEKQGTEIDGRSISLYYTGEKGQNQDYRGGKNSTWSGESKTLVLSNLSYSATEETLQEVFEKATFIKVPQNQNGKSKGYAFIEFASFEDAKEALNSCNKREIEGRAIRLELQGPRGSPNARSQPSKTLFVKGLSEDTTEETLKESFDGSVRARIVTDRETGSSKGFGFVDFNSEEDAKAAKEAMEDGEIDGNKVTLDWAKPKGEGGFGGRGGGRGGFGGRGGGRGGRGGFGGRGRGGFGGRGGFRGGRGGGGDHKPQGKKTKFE

[2] = target: T2, Human recombinant protein PRMT5 (human, UniProt O14744 1-637); assay: as above; conditions: both partners purified
T2 construct: PRMT5, human, recombinant protein bought from Origene; No catalogue number, host, tag or limits are printed; source: bought: Origene
T2 sequence (O14744 whole entry): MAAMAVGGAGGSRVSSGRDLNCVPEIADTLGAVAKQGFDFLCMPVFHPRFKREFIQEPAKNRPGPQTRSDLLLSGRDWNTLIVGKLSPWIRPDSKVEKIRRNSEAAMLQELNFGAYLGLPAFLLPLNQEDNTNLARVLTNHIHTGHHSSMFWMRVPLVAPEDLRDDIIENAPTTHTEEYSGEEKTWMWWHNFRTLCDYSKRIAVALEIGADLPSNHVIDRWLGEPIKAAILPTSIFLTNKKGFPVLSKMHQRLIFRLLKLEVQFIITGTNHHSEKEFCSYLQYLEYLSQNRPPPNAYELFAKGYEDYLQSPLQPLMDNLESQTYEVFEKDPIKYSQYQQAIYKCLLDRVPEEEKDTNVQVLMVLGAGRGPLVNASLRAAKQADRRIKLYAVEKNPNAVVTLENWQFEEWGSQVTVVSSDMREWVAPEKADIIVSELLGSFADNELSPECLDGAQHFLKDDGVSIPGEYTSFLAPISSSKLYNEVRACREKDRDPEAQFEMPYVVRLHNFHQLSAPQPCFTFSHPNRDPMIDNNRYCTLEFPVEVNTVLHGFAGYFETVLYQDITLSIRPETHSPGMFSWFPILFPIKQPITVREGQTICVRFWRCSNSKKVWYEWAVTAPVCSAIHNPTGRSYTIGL

binding result [1]: binds
binding result [2]: binds
B1: Human recombinant protein CITED2 (natural protein, UniProt Q99967 1-270, looked up)
chain: MADHMMAMNHGRFPDGTNGLHHHPAHRMGMGQFPSPHHHQQQQPQHAFNALMGEHIHYGAGNMNATSGIRHAMGPGTVNGGHPPSALAPAARFNNSQFMGPPVASQGGSLPASMQLQKLNNQYFNHHPYPHNHYMPDLHPAAGHQMNGTNQHFRDCNPKHSGGSSTPGGSGGSSTPGGSGSSSGGGAGSSNSGGGSGSGNMPASVAHVPAAMLPPNVIDTDFIDEEVLMSLVIEMGLDRIKELPELWLGQNEFDFMTDFVCKQQPSRVSC
notes: CITED2, human, recombinant protein bought from Origene; No catalogue number, host, tag or limits are printed; source: bought: Origene
